Measured values reported in the supplement of paper PMC9112550, “Optimization of the antimicrobial peptide Bac7 by deep mutational scanning” (BMC Biology, 2022).

system: Escherichia coli TOP10; assay: shrunken log2 fold change of peptide-encoding DNA abundance (4.5 h post-induction vs induction); higher = less antimicrobial activity (less host growth inhibition); conditions: time post-induction: 4.5 h; library: site-saturation at positions 5, 18, 19, 20
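Also: peptides expressed intracellularly from a pBAD plasmid library in pooled LB shake-flask culture, induced with 0.3% L-arabinose, DNA abundance read by NGS, three biological replicates, DESeq2 with apeglm shrinkage.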

Point of comparison: RRIRARPPRLPRPRPRPRRPPRP, “shrunken log2 fold change” value 0.494. Against it:
- RRIRCRPPRLPRPRPRPMEFPRP — lower, -0.0158
- RRIRERPPRLPRPRPRPPSRPRP — within 0.2 log units, 0.577
- RRIRHRPPRLPRPRPRPCKMPRP — lower, -0.134
- RRIRERPPRLPRPRPRPEHDPRP — lower, -0.0107
- RRIRPRPPRLPRPRPRPDWAPRP — lower, 0.0079
- RRIRLRPPRLPRPRPRPESGPRP — lower, 0.0315
- RRIRDRPPRLPRPRPRPRQRPRP — higher, 0.708
- RRIRSRPPRLPRPRPRPYPQPRP — lower, -0.267
- RRIRGRPPRLPRPRPRPKWGPRP — lower, 0.215
- RRIRSRPPRLPRPRPRPCHYPRP — lower, -0.0214
- RRIRGRPPRLPRPRPRPKIRPRP — lower, 0.118
- RRIRMRPPRLPRPRPRPRTWPRP — higher, 1.11
- RRIRYRPPRLPRPRPRPALNPRP — lower, -0.541
- RRIRRRPPRLPRPRPRPYCVPRP — lower, -0.462
- RRIRGRPPRLPRPRPRPYQMPRP — lower, -0.0136
- RRIRWRPPRLPRPRPRPMVYPRP — lower, 0.0222
- RRIRLRPPRLPRPRPRPTQGPRP — higher, 0.852
- RRIRSRPPRLPRPRPRPKNKPRP — lower, -0.242
- RRIRQRPPRLPRPRPRPTKDPRP — lower, -0.198
- RRIRPRPPRLPRPRPRPGFGPRP — higher, 0.752
- RRIRLRPPRLPRPRPRPGGGPRP — higher, 0.849
- RRIRDRPPRLPRPRPRPQCYPRP — lower, 0.0803
- RRIRSRPPRLPRPRPRPKWQPRP — lower, 0.255
- RRIRIRPPRLPRPRPRPHNWPRP — lower, -0.239
- RRIRNRPPRLPRPRPRPEAGPRP — lower, -0.0775
- RRIRVRPPRLPRPRPRPHCMPRP — lower, -0.414
- RRIRGRPPRLPRPRPRPAVPPRP — within 0.2 log units, 0.686
- RRIRPRPPRLPRPRPRPQDFPRP — lower, -0.0957
- RRIRKRPPRLPRPRPRPRDLPRP — lower, 0.255
- RRIRHRPPRLPRPRPRPNVFPRP — lower, -0.116
- RRIRKRPPRLPRPRPRPATHPRP — within 0.2 log units, 0.426
- RRIRWRPPRLPRPRPRPASWPRP — within 0.2 log units, 0.576
- RRIRDRPPRLPRPRPRPLQAPRP — within 0.2 log units, 0.365
- RRIRIRPPRLPRPRPRPVQMPRP — lower, -0.675
- RRIRSRPPRLPRPRPRPFAWPRP — lower, -0.0248
- RRIRHRPPRLPRPRPRPEAIPRP — lower, -0.0296
- RRIRQRPPRLPRPRPRPVHKPRP — lower, 0.0383
- RRIRCRPPRLPRPRPRPMNGPRP — lower, -0.0977
- RRIRLRPPRLPRPRPRPMDVPRP — lower, 0.0104
- RRIRGRPPRLPRPRPRPKCLPRP — lower, -0.0243
- RRIRRRPPRLPRPRPRPTNDPRP — lower, 0.263
- RRIRYRPPRLPRPRPRPDCSPRP — lower, -0.315
- RRIRTRPPRLPRPRPRPVAVPRP — lower, 0.0298
- RRIRLRPPRLPRPRPRPPYGPRP — lower, 0.0785
- RRIRNRPPRLPRPRPRPKHSPRP — lower, -0.187
- RRIRSRPPRLPRPRPRPCFVPRP — lower, -0.378
- RRIRPRPPRLPRPRPRPLTGPRP — lower, 0.019
- RRIRNRPPRLPRPRPRPVQAPRP — lower, -0.00783
- RRIRGRPPRLPRPRPRPPNWPRP — higher, 0.862
- RRIRKRPPRLPRPRPRPWAFPRP — lower, -0.016
- RRIRDRPPRLPRPRPRPQNPPRP — lower, -0.00133
- RRIRNRPPRLPRPRPRPIQLPRP — lower, -0.203
- RRIRCRPPRLPRPRPRPQNVPRP — lower, -0.749
- RRIRRRPPRLPRPRPRPLEVPRP — lower, 0.197
- RRIRRRPPRLPRPRPRPHPWPRP — lower, 0.25
- RRIRVRPPRLPRPRPRPCISPRP — lower, 0.00333
- RRIRSRPPRLPRPRPRPQMAPRP — lower, 0.0615
- RRIRWRPPRLPRPRPRPYEAPRP — lower, -0.569
- RRIRIRPPRLPRPRPRPFKTPRP — lower, 0.0132
- RRIRQRPPRLPRPRPRPACHPRP — lower, 0.105
- RRIRYRPPRLPRPRPRPDPGPRP — lower, -0.124
- RRIRFRPPRLPRPRPRPCNPPRP — lower, -0.0333
- RRIRARPPRLPRPRPRPWLCPRP — lower, 0.116
- RRIRIRPPRLPRPRPRPMVDPRP — lower, -0.0165
- RRIRCRPPRLPRPRPRPYIPPRP — lower, -0.771
- RRIRDRPPRLPRPRPRPLKWPRP — lower, 0.0491
- RRIRDRPPRLPRPRPRPYYSPRP — lower, 0.0804
- RRIRMRPPRLPRPRPRPQFEPRP — lower, 0.046
- RRIRNRPPRLPRPRPRPQKDPRP — lower, -0.564
- RRIRVRPPRLPRPRPRPRPGPRP — within 0.2 log units, 0.627
- RRIRHRPPRLPRPRPRPPDSPRP — lower, 0.139
- RRIRYRPPRLPRPRPRPSFVPRP — lower, -0.714
- RRIRCRPPRLPRPRPRPSFWPRP — lower, -0.0552
- RRIRDRPPRLPRPRPRPQTCPRP — lower, 0.0864
